# Legend:
# [1] = anti-Myc western blot of medium, normalised to IgG
# [2] = western blot of cell lysates; conditions: glycan lost; control: wild type full-length MMRN1
# [3] = glycan lost, control: wild type full-length MMRN1
Protein,"expression_or_secretion, other: % reduction vs WT ([1]; glycan lost, control: N-terminal EMI in WT HEK293T cells)",expression_or_secretion [2],"expression_or_secretion, other: % reduction vs WT [1, 3]","expression_or_secretion, other: % reduction vs WT ([1]; glycan changed form, control: N-terminal EMI in WT HEK293T cells)"
Multimerin-1 (MMRN1): FX KO (protein) parent chain: MKGARLFVLLSSLWSGGIGLNNSKHSWTIPEDGNSQKTMPSASVPPNKIQSLQILPTTRVMSAEIATTPEARTSEDSLLKSTLPPSETSAPAEGVRNQTLTSTEKAEGVVKLQNLTLPTNASIKFNPGAESVVLSNSTLKFLQSFARKSNEQATSLNTVGGTGGIGGVGGTGGVGNRAPRETYLSRGDSSSSQRTDYQKSNFETTRGKNWCAYVHTRLSPTVILDNQVTYVPGGKGPCGWTGGSCPQRSQKISNPVYRMQHKIVTSLDWRCCPGYSGPKCQLRAQEQQSLIHTNQAESHTAVGRGVAEQQQQQGCGDPEVMQKMTDQVNYQAMKLTLLQKKIDNISLTVNDVRNTYSSLEGKVSEDKSREFQSLLKGLKSKSINVLIRDIVREQFKIFQNDMQETVAQLFKTVSSLSEDLESTRQIIQKVNESVVSIAAQQKFVLVQENRPTLTDIVELRNHIVNVRQEMTLTCEKPIKELEVKQTHLEGALEQEHSRSILYYESLNKTLSKLKEVHEQLLSTEQVSDQKNAPAAESVSNNVTEYMSTLHENIKKQSLMMLQMFEDLHIQESKINNLTVSLEMEKESLRGECEDMLSKCRNDFKFQLKDTEENLHVLNQTLAEVLFPMDNKMDKMSEQLNDLTYDMEILQPLLEQGASLRQTMTYEQPKEAIVIRKKIENLTSAVNSLNFIIKELTKRHNLLRNEVQGRDDALERRINEYALEMEDGLNKTMTIINNAIDFIQDNYALKETLSTIKDNSEIHHKCTSDMETILTFIPQFHRLNDSIQTLVNDNQRYNFVLQVAKTLAGIPRDEKLNQSNFQKMYQMFNETTSQVRKYQQNMSHLEEKLLLTTKISKNFETRLQDIESKVTQTLIPYYISVKKGSVVTNERDQALQLQVLNSRFKALEAKSIHLSINFFSLNKTLHEVLTMCHNASTSVSELNATIPKWIKHSLPDIQLLQKGLTEFVEPIIQIKTQAALSNLTCCIDRSLPGSLANVVKSQKQVKSLPKKINALKKPTVNLTTVLIGRTQRNTDNIIYPEEYSSCSRHPCQNGGTCINGRTSFTCACRHPFTGDNCTIKLVEENALAPDFSKGSYRYAPMVAFFASHTYGMTIPGPILFNNLDVNYGASYTPRTGKFRIPYLGVYVFKYTIESFSAHISGFLVVDGIDKLAFESENINSEIHCDRVLTGDALLELNYGQEVWLRLAKGTIPAKFPPVTTFSGYLLYRT,decreases,,,
Multimerin-1 (MMRN1): T265A (protein) parent chain: MKGARLFVLLSSLWSGGIGLNNSKHSWTIPEDGNSQKTMPSASVPPNKIQSLQILPTTRVMSAEIATTPEARTSEDSLLKSTLPPSETSAPAEGVRNQTLTSTEKAEGVVKLQNLTLPTNASIKFNPGAESVVLSNSTLKFLQSFARKSNEQATSLNTVGGTGGIGGVGGTGGVGNRAPRETYLSRGDSSSSQRTDYQKSNFETTRGKNWCAYVHTRLSPTVILDNQVTYVPGGKGPCGWTGGSCPQRSQKISNPVYRMQHKIVTSLDWRCCPGYSGPKCQLRAQEQQSLIHTNQAESHTAVGRGVAEQQQQQGCGDPEVMQKMTDQVNYQAMKLTLLQKKIDNISLTVNDVRNTYSSLEGKVSEDKSREFQSLLKGLKSKSINVLIRDIVREQFKIFQNDMQETVAQLFKTVSSLSEDLESTRQIIQKVNESVVSIAAQQKFVLVQENRPTLTDIVELRNHIVNVRQEMTLTCEKPIKELEVKQTHLEGALEQEHSRSILYYESLNKTLSKLKEVHEQLLSTEQVSDQKNAPAAESVSNNVTEYMSTLHENIKKQSLMMLQMFEDLHIQESKINNLTVSLEMEKESLRGECEDMLSKCRNDFKFQLKDTEENLHVLNQTLAEVLFPMDNKMDKMSEQLNDLTYDMEILQPLLEQGASLRQTMTYEQPKEAIVIRKKIENLTSAVNSLNFIIKELTKRHNLLRNEVQGRDDALERRINEYALEMEDGLNKTMTIINNAIDFIQDNYALKETLSTIKDNSEIHHKCTSDMETILTFIPQFHRLNDSIQTLVNDNQRYNFVLQVAKTLAGIPRDEKLNQSNFQKMYQMFNETTSQVRKYQQNMSHLEEKLLLTTKISKNFETRLQDIESKVTQTLIPYYISVKKGSVVTNERDQALQLQVLNSRFKALEAKSIHLSINFFSLNKTLHEVLTMCHNASTSVSELNATIPKWIKHSLPDIQLLQKGLTEFVEPIIQIKTQAALSNLTCCIDRSLPGSLANVVKSQKQVKSLPKKINALKKPTVNLTTVLIGRTQRNTDNIIYPEEYSSCSRHPCQNGGTCINGRTSFTCACRHPFTGDNCTIKLVEENALAPDFSKGSYRYAPMVAFFASHTYGMTIPGPILFNNLDVNYGASYTPRTGKFRIPYLGVYVFKYTIESFSAHISGFLVVDGIDKLAFESENINSEIHCDRVLTGDALLELNYGQEVWLRLAKGTIPAKFPPVTTFSGYLLYRT,,no change,no change,
Multimerin-1 (MMRN1): T216A (protein) parent chain: MKGARLFVLLSSLWSGGIGLNNSKHSWTIPEDGNSQKTMPSASVPPNKIQSLQILPTTRVMSAEIATTPEARTSEDSLLKSTLPPSETSAPAEGVRNQTLTSTEKAEGVVKLQNLTLPTNASIKFNPGAESVVLSNSTLKFLQSFARKSNEQATSLNTVGGTGGIGGVGGTGGVGNRAPRETYLSRGDSSSSQRTDYQKSNFETTRGKNWCAYVHTRLSPTVILDNQVTYVPGGKGPCGWTGGSCPQRSQKISNPVYRMQHKIVTSLDWRCCPGYSGPKCQLRAQEQQSLIHTNQAESHTAVGRGVAEQQQQQGCGDPEVMQKMTDQVNYQAMKLTLLQKKIDNISLTVNDVRNTYSSLEGKVSEDKSREFQSLLKGLKSKSINVLIRDIVREQFKIFQNDMQETVAQLFKTVSSLSEDLESTRQIIQKVNESVVSIAAQQKFVLVQENRPTLTDIVELRNHIVNVRQEMTLTCEKPIKELEVKQTHLEGALEQEHSRSILYYESLNKTLSKLKEVHEQLLSTEQVSDQKNAPAAESVSNNVTEYMSTLHENIKKQSLMMLQMFEDLHIQESKINNLTVSLEMEKESLRGECEDMLSKCRNDFKFQLKDTEENLHVLNQTLAEVLFPMDNKMDKMSEQLNDLTYDMEILQPLLEQGASLRQTMTYEQPKEAIVIRKKIENLTSAVNSLNFIIKELTKRHNLLRNEVQGRDDALERRINEYALEMEDGLNKTMTIINNAIDFIQDNYALKETLSTIKDNSEIHHKCTSDMETILTFIPQFHRLNDSIQTLVNDNQRYNFVLQVAKTLAGIPRDEKLNQSNFQKMYQMFNETTSQVRKYQQNMSHLEEKLLLTTKISKNFETRLQDIESKVTQTLIPYYISVKKGSVVTNERDQALQLQVLNSRFKALEAKSIHLSINFFSLNKTLHEVLTMCHNASTSVSELNATIPKWIKHSLPDIQLLQKGLTEFVEPIIQIKTQAALSNLTCCIDRSLPGSLANVVKSQKQVKSLPKKINALKKPTVNLTTVLIGRTQRNTDNIIYPEEYSSCSRHPCQNGGTCINGRTSFTCACRHPFTGDNCTIKLVEENALAPDFSKGSYRYAPMVAFFASHTYGMTIPGPILFNNLDVNYGASYTPRTGKFRIPYLGVYVFKYTIESFSAHISGFLVVDGIDKLAFESENINSEIHCDRVLTGDALLELNYGQEVWLRLAKGTIPAKFPPVTTFSGYLLYRT,,no change,decreases,
Multimerin-1 (MMRN1): T216A/T265A (protein) parent chain: MKGARLFVLLSSLWSGGIGLNNSKHSWTIPEDGNSQKTMPSASVPPNKIQSLQILPTTRVMSAEIATTPEARTSEDSLLKSTLPPSETSAPAEGVRNQTLTSTEKAEGVVKLQNLTLPTNASIKFNPGAESVVLSNSTLKFLQSFARKSNEQATSLNTVGGTGGIGGVGGTGGVGNRAPRETYLSRGDSSSSQRTDYQKSNFETTRGKNWCAYVHTRLSPTVILDNQVTYVPGGKGPCGWTGGSCPQRSQKISNPVYRMQHKIVTSLDWRCCPGYSGPKCQLRAQEQQSLIHTNQAESHTAVGRGVAEQQQQQGCGDPEVMQKMTDQVNYQAMKLTLLQKKIDNISLTVNDVRNTYSSLEGKVSEDKSREFQSLLKGLKSKSINVLIRDIVREQFKIFQNDMQETVAQLFKTVSSLSEDLESTRQIIQKVNESVVSIAAQQKFVLVQENRPTLTDIVELRNHIVNVRQEMTLTCEKPIKELEVKQTHLEGALEQEHSRSILYYESLNKTLSKLKEVHEQLLSTEQVSDQKNAPAAESVSNNVTEYMSTLHENIKKQSLMMLQMFEDLHIQESKINNLTVSLEMEKESLRGECEDMLSKCRNDFKFQLKDTEENLHVLNQTLAEVLFPMDNKMDKMSEQLNDLTYDMEILQPLLEQGASLRQTMTYEQPKEAIVIRKKIENLTSAVNSLNFIIKELTKRHNLLRNEVQGRDDALERRINEYALEMEDGLNKTMTIINNAIDFIQDNYALKETLSTIKDNSEIHHKCTSDMETILTFIPQFHRLNDSIQTLVNDNQRYNFVLQVAKTLAGIPRDEKLNQSNFQKMYQMFNETTSQVRKYQQNMSHLEEKLLLTTKISKNFETRLQDIESKVTQTLIPYYISVKKGSVVTNERDQALQLQVLNSRFKALEAKSIHLSINFFSLNKTLHEVLTMCHNASTSVSELNATIPKWIKHSLPDIQLLQKGLTEFVEPIIQIKTQAALSNLTCCIDRSLPGSLANVVKSQKQVKSLPKKINALKKPTVNLTTVLIGRTQRNTDNIIYPEEYSSCSRHPCQNGGTCINGRTSFTCACRHPFTGDNCTIKLVEENALAPDFSKGSYRYAPMVAFFASHTYGMTIPGPILFNNLDVNYGASYTPRTGKFRIPYLGVYVFKYTIESFSAHISGFLVVDGIDKLAFESENINSEIHCDRVLTGDALLELNYGQEVWLRLAKGTIPAKFPPVTTFSGYLLYRT,,no change,decreases,
Multimerin-1 (MMRN1): FUT10/11 DKO (protein) parent chain: MKGARLFVLLSSLWSGGIGLNNSKHSWTIPEDGNSQKTMPSASVPPNKIQSLQILPTTRVMSAEIATTPEARTSEDSLLKSTLPPSETSAPAEGVRNQTLTSTEKAEGVVKLQNLTLPTNASIKFNPGAESVVLSNSTLKFLQSFARKSNEQATSLNTVGGTGGIGGVGGTGGVGNRAPRETYLSRGDSSSSQRTDYQKSNFETTRGKNWCAYVHTRLSPTVILDNQVTYVPGGKGPCGWTGGSCPQRSQKISNPVYRMQHKIVTSLDWRCCPGYSGPKCQLRAQEQQSLIHTNQAESHTAVGRGVAEQQQQQGCGDPEVMQKMTDQVNYQAMKLTLLQKKIDNISLTVNDVRNTYSSLEGKVSEDKSREFQSLLKGLKSKSINVLIRDIVREQFKIFQNDMQETVAQLFKTVSSLSEDLESTRQIIQKVNESVVSIAAQQKFVLVQENRPTLTDIVELRNHIVNVRQEMTLTCEKPIKELEVKQTHLEGALEQEHSRSILYYESLNKTLSKLKEVHEQLLSTEQVSDQKNAPAAESVSNNVTEYMSTLHENIKKQSLMMLQMFEDLHIQESKINNLTVSLEMEKESLRGECEDMLSKCRNDFKFQLKDTEENLHVLNQTLAEVLFPMDNKMDKMSEQLNDLTYDMEILQPLLEQGASLRQTMTYEQPKEAIVIRKKIENLTSAVNSLNFIIKELTKRHNLLRNEVQGRDDALERRINEYALEMEDGLNKTMTIINNAIDFIQDNYALKETLSTIKDNSEIHHKCTSDMETILTFIPQFHRLNDSIQTLVNDNQRYNFVLQVAKTLAGIPRDEKLNQSNFQKMYQMFNETTSQVRKYQQNMSHLEEKLLLTTKISKNFETRLQDIESKVTQTLIPYYISVKKGSVVTNERDQALQLQVLNSRFKALEAKSIHLSINFFSLNKTLHEVLTMCHNASTSVSELNATIPKWIKHSLPDIQLLQKGLTEFVEPIIQIKTQAALSNLTCCIDRSLPGSLANVVKSQKQVKSLPKKINALKKPTVNLTTVLIGRTQRNTDNIIYPEEYSSCSRHPCQNGGTCINGRTSFTCACRHPFTGDNCTIKLVEENALAPDFSKGSYRYAPMVAFFASHTYGMTIPGPILFNNLDVNYGASYTPRTGKFRIPYLGVYVFKYTIESFSAHISGFLVVDGIDKLAFESENINSEIHCDRVLTGDALLELNYGQEVWLRLAKGTIPAKFPPVTTFSGYLLYRT,,,,decreases
